# Reference: patent publication US20200017592A1 (Regeneron, published 2020)
# Numbering of substitutions follows the chain as printed.
# T1: human IL-36R extracellular domain expressed with a C-terminal mouse IgG2a Fc tag (hIL-36R-mFc) (human; mouse, UniProt Q9HB29 20-337)
# T1 construct: not shown: mouse IgG2a Fc, E98-K330
# T1 sequence (looked up): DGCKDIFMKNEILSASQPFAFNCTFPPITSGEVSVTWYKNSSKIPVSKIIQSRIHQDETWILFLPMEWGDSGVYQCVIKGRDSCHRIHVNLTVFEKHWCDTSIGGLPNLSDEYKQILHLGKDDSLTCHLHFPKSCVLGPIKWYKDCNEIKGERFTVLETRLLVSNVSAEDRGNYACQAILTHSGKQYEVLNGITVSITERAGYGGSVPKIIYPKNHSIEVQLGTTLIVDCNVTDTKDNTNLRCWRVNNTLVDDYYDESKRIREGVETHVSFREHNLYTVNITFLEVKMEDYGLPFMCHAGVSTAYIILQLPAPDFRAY
# T2: in-line fusion protein of human IL-36R extracellular domain and IL1RAcP extracellular domain expressed with … (human; mouse, UniProt Q9HB29 20-337; Q9NPH3 21-359, limits assumed)
# T2 construct: not shown: mouse IgG2a Fc
# T2 sequence (looked up): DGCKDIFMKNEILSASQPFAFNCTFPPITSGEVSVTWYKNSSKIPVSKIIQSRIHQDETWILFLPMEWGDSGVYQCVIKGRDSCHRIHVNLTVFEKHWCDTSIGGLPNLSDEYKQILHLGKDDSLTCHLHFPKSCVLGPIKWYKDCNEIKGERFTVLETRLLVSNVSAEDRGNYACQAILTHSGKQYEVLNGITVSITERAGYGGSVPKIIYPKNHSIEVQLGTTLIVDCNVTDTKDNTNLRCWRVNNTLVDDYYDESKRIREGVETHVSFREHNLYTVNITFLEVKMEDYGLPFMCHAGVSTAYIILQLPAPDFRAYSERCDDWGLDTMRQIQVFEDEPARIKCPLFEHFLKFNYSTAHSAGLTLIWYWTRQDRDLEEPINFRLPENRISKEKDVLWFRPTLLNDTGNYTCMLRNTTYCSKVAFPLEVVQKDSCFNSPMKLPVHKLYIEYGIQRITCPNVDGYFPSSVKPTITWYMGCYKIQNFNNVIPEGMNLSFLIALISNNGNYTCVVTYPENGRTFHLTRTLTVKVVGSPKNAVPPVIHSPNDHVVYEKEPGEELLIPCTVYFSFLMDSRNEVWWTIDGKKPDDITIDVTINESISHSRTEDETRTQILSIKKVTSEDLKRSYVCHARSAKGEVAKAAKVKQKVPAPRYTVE
# B1: H4H14709P (antibody, human IgG4 S228P, kappa, V domains shown)
# VH: EVQLVESGGGLVQPGGSLRLSCAASGFTFSDYAMSWVRQAPGKGLEWVSGISGNGGDTYYGDFVKGRFTISRDNSKNTLYLQMNSLRGEDTAAYFCVIDLDYWGQGTLVTVSS
# VL: DIQMTQSPSTLSASEGDRVTITCRASQSISSWLAWYQQKPGKAPRLLIYKASILGDGVPSRFSGSGSGTEFTLTISSLQPDDFATYYCHQYNSYLWTFGQGTKVEIKR
# notes: Fully human anti-IL-36R antibody
# B2: H4H14728P (antibody, human IgG4 S228P, kappa, V domains shown)
# VH: QVQLQESGPGLVKPSQTLSLTCTVSGGSISSADYYWSWIRQHPGKGLEWIGSIYYTGSTYYNPSLKSRLTISIDTSENQFSLKLTSLTAADTAVYYCASEEANWGSHFDSWGQGTLVTVSS
# VL: DIQMTQSPSSLSASVGDRVTITCRASQSIDNFLNWYQQKPGKAPKLLIYAASSLQSGVPSRFSGSGSGTDFTLTISSLQPEDFASYYCQHSHSAHPITFGQGTRLEIKR
# notes: as for B1
# B3: H4H14731P (antibody, human IgG4 S228P, kappa, V domains shown)
# VH: QLQLQESGPGLVKPSETLSLTCTVSGGSISSSNYYWGWIRQPPGKRLEWIGSIYYSGSTYYNPSLKTRVTISVDTSKNQFSLKLTSVTAADTAVYYCAREEAAALTHFDFWGQGTLVTVSS
# VL: B2 VL with D30S, F32Y, Y49F, S85T, A94S
# notes: as for B1
# B4: H4H14732P2 (antibody, human IgG4 S228P, kappa, V domains shown)
# VH: EVQLVESGGGLVQPGRSLRLSCAASGFTFDDYAMHWVRQAPGKGLEWVSGINWAGYNIDYADSVKGRFTISRDNAKNSLYLQMNSLRAEDTALYYCAKDMRGFSYGFPFDYWGQGTLVTVSS
# VL: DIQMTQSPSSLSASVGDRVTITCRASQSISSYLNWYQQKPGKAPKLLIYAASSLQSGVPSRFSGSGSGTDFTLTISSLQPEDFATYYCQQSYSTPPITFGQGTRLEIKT
# notes: as for B1
# Target: T1, human IL-36R extracellular domain …
# Test: SPR Biacore 4000, mAb captured on anti-hFc, 25C
# Protocol: (§1) Equilibrium dissociation constants (KD values) for IL-36R binding to purified anti-IL-36R antibodies were determined using a real-time surface plasmon resonance biosensor using a Biacore 4000 instrument. The Biacore sensor surface was first derivatized by amine coupling with a monoclonal mouse anti-human Fc antibody (GE, # BR-1008-39) to capture anti-IL-36R monoclonal antibodies. All binding studies were performed in 0.01 M Hepes pH 7.4, 0.15 M NaCl, 3 mM EDTA, and 0.05% v/v Surfactant Tween-20 (HBS-ET running buffer) at 25° C. and 37° C. Different concentrations of IL-36R reagents, human IL-36R extracellular domain expressed with a C-terminal myc-myc-hexahistidine tag (hIL-36R-MMH), Macaca fascicularis IL-36R extracellular domain expressed with a C-terminal myc-myc-hexahistidine tag (mfIL-36R-MMH: mROR1 signal sequence (M1-A29). Macaca fascicularis IL36R_ecto domain (D20-A336).mycmycHis6), human IL-36R extracellular domain expressed with a C-terminal mouse IgG2a Fc tag (hIL-36R-mFc: mROR1 signal sequence (M1-A29)-human IL36R (D20-Y337)-mouse IgG2aFc (E98-K330)) or an in-line fusion protein of human IL-36R extracellular domain and IL1RAcP extracellular domain expressed with mouse IgG2a Fc tag (hIL-36R-Trap-mFc: mROR1 signal sequence (M1-A29)-human IL36R ecto domain (D20-Y337)-human IL1RacP ecto domain(S21-E359)-mouse IgG2aFc) in HBS-ET running buffer (ranging from 100 nM to 3.7 nM, 3-fold dilutions) were injected over the anti-IL-36R antibody captured surface for 4 minutes at a flow rate of 30 μL/minute and their dissociation in HBS-ET running buffer was monitored for 10 minutes. Kinetic association rate constant (kₐ) and dissociation rate constant (kd) were determined by fitting the real-time sensorgrams to a 1:1 binding model using Scrubber 2.0c curve fitting software. Binding dissociation equilibrium constants (KD) and dissociative half-lives (t_{1/2}) were calculated from the kinetic rate constants as: […]
Binder,100 nM hIL-36R-mFc Bound (RU),Kd,koff,kon,t1/2
B1,142 RU,0.335 nM,8.62e-05 s⁻¹,257000 M⁻¹ s⁻¹,134 min
B2,7 RU,,,,
B3,10 RU,5.79 nM,0.000323 s⁻¹,55800 M⁻¹ s⁻¹,36 min
B4,145 RU,1.4 nM,0.000797 s⁻¹,570000 M⁻¹ s⁻¹,14 min

# Target: T2, in-line fusion protein of human IL-36R …
# Test: SPR Biacore 4000, mAb captured on anti-hFc, 25C
# Protocol: as §1
Binder,100 nM hIL-36R-Trap-mFc Bound (RU),Kd,koff,kon,t1/2
B1,173 RU,0.404 nM,8.07e-05 s⁻¹,200000 M⁻¹ s⁻¹,143 min
B2,63 RU,14 nM,0.000565 s⁻¹,40300 M⁻¹ s⁻¹,20 min
B3,60 RU,4.45 nM,0.000201 s⁻¹,45200 M⁻¹ s⁻¹,57 min
B4,161 RU,2.95 nM,0.00136 s⁻¹,462000 M⁻¹ s⁻¹,8 min

# Target: T1, human IL-36R extracellular domain …
# Test: SPR Biacore 4000, mAb captured on anti-hFc, 37C
# Protocol: as §1
Binder,100 nM hIL-36R-mFc Bound (RU),Kd,koff,kon,t1/2
B1,211 RU,0.205 nM,0.000112 s⁻¹,543000 M⁻¹ s⁻¹,104 min
B2,11 RU,28.7 nM,0.000465 s⁻¹,16200 M⁻¹ s⁻¹,25 min
B3,12 RU,6.43 nM,0.00045 s⁻¹,69900 M⁻¹ s⁻¹,26 min
B4,195 RU,2 nM,0.00127 s⁻¹,635000 M⁻¹ s⁻¹,9 min

# Target: T2, in-line fusion protein of human IL-36R …
# Test: SPR Biacore 4000, mAb captured on anti-hFc, 37C
# Protocol: as §1
Binder,100 nM hIL-36R-Trap-mFc Bound (RU),Kd,koff,kon,t1/2
B1,257 RU,0.264 nM,0.000123 s⁻¹,467000 M⁻¹ s⁻¹,94 min
B2,89 RU,40.9 nM,0.00198 s⁻¹,48500 M⁻¹ s⁻¹,6 min
B3,78 RU,9.77 nM,0.000514 s⁻¹,52600 M⁻¹ s⁻¹,22 min
B4,212 RU,3.63 nM,0.00182 s⁻¹,501000 M⁻¹ s⁻¹,6 min

# Target: T3, human IL-36R extracellular domain expressed with a C-terminal myc-myc-hexahistidine tag (hIL-36R-MMH) (human, UniProt Q9HB29 20-337)
# T3 construct: also called Human IL-36R-MMH; REGN2105
# Test: SPR Biacore T200, mAb captured on anti-hFc, 25C, PBS-T pH 6.0 running buffer
# Protocol: (§2) Additional binding experiments were performed to determine the effect of pH on the rate of dissociation of IL-36R bound to purified anti-IL-36R antibodies, which was determined using a real-time surface plasmon resonance biosensor using a Biacore T200 instrument. The Biacore sensor surface was first derivatized by amine coupling with a monoclonal mouse anti-human Fc antibody (GE, # BR-1008-39) to capture anti-IL-36R antibodies. […] Different concentrations of hIL-36R-MMH and mfIL-36R-MMH prepared in PBS-T, pH7.4 buffer (ranging from 100 nM to 11.11 nM, 3-fold dilutions) were injected over the anti-IL-36R antibody captured surface for 4 minutes at a flow rate of 50 μL/minute and their dissociation in two running buffers, PBS-T, pH7.4 and PBS-T, pH 6.0, was monitored for 10 minutes. All of these binding kinetics experiments were performed at 25° C. and 37° C. Kinetic dissociation constant (kd) were determined by fitting the real-time sensorgrams to a 1:1 binding model using Scrubber 2.0c curve fitting software. Binding dissociative half-lives (t_{1/2}) were calculated from kd as: […]
Binder,100 nM Human IL-36R-MMH Bound (RU),koff,t1/2
B1,99 RU,0.000842 s⁻¹,14 min
B2,96 RU,0.000887 s⁻¹,13 min
B3,43 RU,0.000679 s⁻¹,17 min
B4,28 RU,0.000918 s⁻¹,13 min

# Target: T3, human IL-36R extracellular domain …
# Test: SPR Biacore T200, mAb captured on anti-hFc, 25C, PBS-T pH 7.4 running buffer
# Protocol: as §2
Binder,100 nM Human IL-36R-MMH Bound (RU),koff,t1/2
B1,111 RU,0.00042 s⁻¹,28 min
B2,103 RU,0.000898 s⁻¹,13 min
B3,65 RU,0.000553 s⁻¹,21 min
B4,32 RU,0.000865 s⁻¹,13 min

# Target: T3, human IL-36R extracellular domain …
# Test: SPR Biacore T200, mAb captured on anti-hFc, 37C, PBS-T pH 6.0 running buffer
# Protocol: as §2
Binder,100 nM hIL-36R-MMH Bound (RU),koff,t1/2
B1,146 RU,0.00172 s⁻¹,7 min
B2,114 RU,0.00306 s⁻¹,4 min
B3,84 RU,0.00201 s⁻¹,6 min
B4,36 RU,0.00123 s⁻¹,9 min

# Target: T3, human IL-36R extracellular domain …
# Test: SPR Biacore T200, mAb captured on anti-hFc, 37C, PBS-T pH 7.4 running buffer
# Protocol: as §2
Binder,100 nM hIL-36R-MMH Bound (RU),koff,t1/2
B1,159 RU,0.000704 s⁻¹,16 min
B2,121 RU,0.00296 s⁻¹,4 min
B3,91 RU,0.00108 s⁻¹,11 min
B4,40 RU,0.0011 s⁻¹,10 min
